Reference: US20260234290, “Antibodies to Stat3 Decoy Oligonucleotide” (The Regents of the University of California, published 2026)

Legend:
SP1-B3 Fab = SP1-B3 Fab (UniProt A0A0B4J1U7;A0A087WSX0 SEQ:1-120,SEQ:1-115); experiment: BLI; 2 uM Fab; CS3D on streptavidin tips; RT; RAPID-sorted clone; details: myc tag; Ni-NTA purified from E. coli BL21(DE3) periplasm; label: biotin; cyclic 15-mer double-stranded decoy
Protocol: (§1) All buffers were filter sterilized with […] filters prior to preparing samples. Black 384 well microplates were used to set up BLI plates and streptavidin tips were purchased by Sartorius. Kinetic constants of Fabs were determined by Octet RED384 system with continuous shaking at 1000 rpm in RT. Prior to the experiment, biological tips (model name) were presoaked in buffer to allow for equilibration for 1 hour. Data were analyzed using 1:1 interaction model on the ForteBio data analysis software 12.0.

4E4 Fab = 4E4 Fab (UniProt P01764;A0A075B6I4 SEQ:1-116,SEQ:1-110); experiment: BLI; 2 uM Fab; RT; described as weak binding; details: myc tag; Ni-NTA purified from E. coli BL21(DE3) periplasm; label: biotin; cyclic 15-mer double-stranded decoy
Protocol: as §1

Chain of 4E4 Fab (P01764 other isoform, or with tags, fused parts or gaps, chain 1 of 2): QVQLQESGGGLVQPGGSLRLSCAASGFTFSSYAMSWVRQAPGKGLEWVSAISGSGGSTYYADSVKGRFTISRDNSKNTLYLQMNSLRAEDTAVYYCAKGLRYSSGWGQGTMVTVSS
Chain of 4E4 Fab (A0A075B6I4 other isoform, or with tags, fused parts or gaps, chain 2 of 2): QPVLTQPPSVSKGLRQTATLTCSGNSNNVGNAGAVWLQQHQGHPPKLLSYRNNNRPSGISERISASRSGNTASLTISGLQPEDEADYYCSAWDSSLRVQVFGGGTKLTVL
Chain of SP1-B3 Fab (A0A0B4J1U7 other isoform, or with tags, fused parts or gaps, chain 1 of 2): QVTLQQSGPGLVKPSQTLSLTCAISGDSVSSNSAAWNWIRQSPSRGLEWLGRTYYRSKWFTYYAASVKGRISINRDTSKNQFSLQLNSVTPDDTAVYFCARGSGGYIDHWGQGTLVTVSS
Chain of SP1-B3 Fab (A0A087WSX0 other isoform, or with tags, fused parts or gaps, chain 2 of 2): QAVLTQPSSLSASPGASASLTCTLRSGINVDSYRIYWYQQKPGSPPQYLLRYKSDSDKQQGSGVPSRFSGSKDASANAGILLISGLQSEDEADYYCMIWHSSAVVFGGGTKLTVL

B1: CS3D (cyclic STAT3 decoy) (dsDNA)
DNA 1: CATTTCCCGTAAATC
DNA 2: GATTTACGGGAAATG
- koff (SP1-B3 Fab): 0.0211 s⁻¹
- koff (4E4 Fab): 0.111 s⁻¹
